Data: article PMC3817407

T1: ECF03_1198
T1 chain: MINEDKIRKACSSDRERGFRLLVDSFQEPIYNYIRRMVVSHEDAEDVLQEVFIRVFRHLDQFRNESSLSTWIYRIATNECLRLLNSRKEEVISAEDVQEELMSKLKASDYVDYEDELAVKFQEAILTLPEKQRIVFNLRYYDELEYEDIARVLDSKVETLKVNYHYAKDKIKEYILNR

T2: ECF03_1244
T2 chain: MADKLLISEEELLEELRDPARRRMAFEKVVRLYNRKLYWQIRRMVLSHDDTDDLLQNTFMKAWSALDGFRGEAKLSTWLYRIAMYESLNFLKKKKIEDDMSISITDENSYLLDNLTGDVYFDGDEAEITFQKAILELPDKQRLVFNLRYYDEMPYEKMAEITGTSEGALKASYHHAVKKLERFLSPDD

T3: ECF04_1609
T3 chain: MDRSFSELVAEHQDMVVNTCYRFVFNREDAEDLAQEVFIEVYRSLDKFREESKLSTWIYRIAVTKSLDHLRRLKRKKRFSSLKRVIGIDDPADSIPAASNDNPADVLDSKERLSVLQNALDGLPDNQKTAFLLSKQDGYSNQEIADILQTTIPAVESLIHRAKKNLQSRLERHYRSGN

T4: ECF11_3726
T4 chain: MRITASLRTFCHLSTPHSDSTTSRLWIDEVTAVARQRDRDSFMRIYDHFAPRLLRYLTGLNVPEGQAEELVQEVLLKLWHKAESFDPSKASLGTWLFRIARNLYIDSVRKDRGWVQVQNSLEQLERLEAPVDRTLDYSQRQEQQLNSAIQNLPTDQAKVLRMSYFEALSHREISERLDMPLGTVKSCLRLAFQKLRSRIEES

T5: ECF14_3200
T5 chain: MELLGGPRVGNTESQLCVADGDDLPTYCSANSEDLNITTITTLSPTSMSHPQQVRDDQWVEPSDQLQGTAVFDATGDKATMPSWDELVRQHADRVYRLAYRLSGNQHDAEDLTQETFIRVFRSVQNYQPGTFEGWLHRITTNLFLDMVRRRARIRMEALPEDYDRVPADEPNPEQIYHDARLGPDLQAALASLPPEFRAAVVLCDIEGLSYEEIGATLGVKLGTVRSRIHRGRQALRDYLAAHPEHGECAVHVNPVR

T6: ECF16_973
T6 chain: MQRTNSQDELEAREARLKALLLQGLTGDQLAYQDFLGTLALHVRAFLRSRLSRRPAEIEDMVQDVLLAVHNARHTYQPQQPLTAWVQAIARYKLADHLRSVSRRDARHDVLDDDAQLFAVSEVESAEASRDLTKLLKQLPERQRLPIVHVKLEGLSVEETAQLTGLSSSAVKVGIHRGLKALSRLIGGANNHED

T7: ECF22_1147
T7 chain: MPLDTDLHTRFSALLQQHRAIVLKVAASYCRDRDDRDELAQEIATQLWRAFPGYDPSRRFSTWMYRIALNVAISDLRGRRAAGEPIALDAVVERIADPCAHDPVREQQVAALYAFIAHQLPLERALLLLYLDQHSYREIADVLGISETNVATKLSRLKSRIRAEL

T8: ECF27_4265
T8 chain: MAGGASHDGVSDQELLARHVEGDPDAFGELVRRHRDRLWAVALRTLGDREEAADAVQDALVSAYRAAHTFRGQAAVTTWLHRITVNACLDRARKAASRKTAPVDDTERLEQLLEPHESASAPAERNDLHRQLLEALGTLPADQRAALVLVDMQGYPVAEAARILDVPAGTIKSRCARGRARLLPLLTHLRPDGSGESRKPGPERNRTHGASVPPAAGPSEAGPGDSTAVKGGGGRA

T9: ECF33_375
T9 chain: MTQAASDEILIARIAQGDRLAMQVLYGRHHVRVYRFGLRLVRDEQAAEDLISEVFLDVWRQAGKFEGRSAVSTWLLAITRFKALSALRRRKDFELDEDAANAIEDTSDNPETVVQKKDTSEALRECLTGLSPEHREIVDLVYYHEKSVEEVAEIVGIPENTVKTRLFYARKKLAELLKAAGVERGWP

T10: ECF34_1384
T10 chain: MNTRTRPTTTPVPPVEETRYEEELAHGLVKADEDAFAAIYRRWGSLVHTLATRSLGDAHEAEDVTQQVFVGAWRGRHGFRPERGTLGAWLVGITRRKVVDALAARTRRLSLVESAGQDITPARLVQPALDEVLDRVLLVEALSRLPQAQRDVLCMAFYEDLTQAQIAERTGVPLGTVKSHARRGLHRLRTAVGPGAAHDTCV

T11: ECF35_3582
T11 chain: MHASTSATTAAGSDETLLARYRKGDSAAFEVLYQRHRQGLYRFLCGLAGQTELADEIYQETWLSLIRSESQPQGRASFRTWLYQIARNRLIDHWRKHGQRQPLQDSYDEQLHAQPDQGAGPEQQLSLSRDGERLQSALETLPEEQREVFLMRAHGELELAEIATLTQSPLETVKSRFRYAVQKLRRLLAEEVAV

T12: ECF37_2513
T12 chain: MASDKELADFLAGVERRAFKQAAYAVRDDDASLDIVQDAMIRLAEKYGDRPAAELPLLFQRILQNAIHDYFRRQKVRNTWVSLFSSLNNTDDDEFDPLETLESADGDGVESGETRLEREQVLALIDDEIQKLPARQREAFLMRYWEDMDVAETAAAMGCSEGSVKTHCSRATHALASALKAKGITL

T13: ECF38_1322
T13 chain: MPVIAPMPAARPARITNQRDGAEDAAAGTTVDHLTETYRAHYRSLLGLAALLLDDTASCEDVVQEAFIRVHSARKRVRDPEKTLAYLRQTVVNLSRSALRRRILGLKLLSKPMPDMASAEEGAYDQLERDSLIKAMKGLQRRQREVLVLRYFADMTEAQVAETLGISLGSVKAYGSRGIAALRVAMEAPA

B1: AS04_1609 (protein)
chain: MNRTTEQRNAEVMKTIGLLDQMPRVEVDHLFRVRLMQRIEAMEVKKTSWSALPGGAFNPRLAFMALLLMLNIASALMLFMHGTPQATGSSGAIAESLTEDYGGPALSYYDDQTTIDR
B2: AS03_1198 (protein)
chain: MDKDFDFDNIGKRTPYRTPDNFFEETQRKILERTVDEQRKKRRLKRIIPTVIAVAAVLAGILFTPSLRYMNTDTPSASNILAVDKNNVTTDPVDKWIKELSDEELEELVSFSENDIFLN
B3: AS03_1244 (protein)
chain: MKQFDPDVNIRPKEDSIRHYSVPDDYFASFTDKLMAQIPAVKEENTVVVPSVALWPKLRPLLYLAASFLLMIGMFKAFSLFGVGSDTGRTTSTSAGLVALDHGDTRWSEDTDYRDFLHDNCAETVSDEWVLTDFSE
B4: AS11_987 (protein)
chain: MNKHPDNNLLEAYASGSIDAVSGLVVATHLETCSKCRAYVNQVEASQANTVSESPSEYSPEFDDMLNDIINAEPVNDNVVIQDTAFVNVAGKSFELPKTLVRFSDLVGSWRSYGGKVFSAQIDLGEDARVSLMYIGENVQIPQHTHRGLESTLVLHGGFSDEDGQYEEGDLMVRDASVKHSPFTQEGEDCLCLTVLTEPMIFTQGVARIFNLFGKGLYP
B5: AS15_436 (protein)
chain: MAQSTEPKASPQEATAKGGDNTKGKSRKELQQQIDENLRRVYEEALVQEVPDRFAMLLDQLRQKGTGK
B6: AS15_524 (protein)
chain: MNFGVEDMIEHVPMEDKRKGAAALDEARLRQQAIGVKLRQMFDEVVNEPVPDEFLAILRKAERPAGGE
B7: AS01_3473 (protein)
chain: MSNYDNAELLALWLEGKLTPKQRDEFEQRCIQDSQFAEQVDAAAMVKIGADDYSSSEVPQWNKAATFEPQQANNSGSWLSGVSLVTSALAIVLVLTGTQVTTSEGELRIRFGSGQSEQALVKLVDSKLDAFKQNQQDAFTLYAQTLQQQQSESASQLTNYLLSSSRKERREDFAELIKFVNQQRSDDQLFYARQLNQLQQDVYHDATGVALESIQQ
B8: AS14_1324 (protein)
chain: MSGSRPEPEGHLAEQHLGDRLSALVDGELGHDARERVLAHVATCPKCKAEVDAQRRLKNVFAEAAPPAPSESFLARLQGLPGGGDSDGGGSPFSGLPGGFGASAASGVFGPRRDERFEFDYVPAGSHTPVLPSATSGRGFRIHEVGRHESDRSASRGLRFAFAAAGAVSLAAIALGGVTLGTPDTTTEARGSGSGSNVTPLRTPGSAAATGSESQRRRTAGPLLGQGQRALGDLPVASTTASAPLLPGMPAPAGGDARQQAVRALTTPVTAGAAAMSPLIRPLEAVPPLSLSSWSAAPEVRPPGLLAAPDPAPSPYPAASPAASSSPLR

Target: T1, ECF03_1198

Binder | fold repression
B1 | 6.14
B2 | 45.8
B3 | 2.13
B4 | 2.32
B5 | 3.84
B6 | 3.92
B7 | 1.5
B8 | 3.58

Target: T2, ECF03_1244

Binder | fold repression
B1 | 4.39
B2 | 1.36
B3 | 60.8
B4 | 2.2
B5 | 1.54
B6 | 2.96
B7 | 1.39
B8 | 3.13

Target: T3, ECF04_1609

Binder | fold repression
B1 | 7.83
B2 | 1.54
B3 | 2.42
B4 | 2.66
B5 | 5.41
B6 | 6.89
B7 | 1.67
B8 | 4.65

Target: T4, ECF11_3726

Binder | fold repression
B1 | 13.9
B2 | 1.38
B3 | 3.57
B4 | 6.99
B5 | 7.87
B6 | 8.06
B7 | 5.65
B8 | 11

Target: T5, ECF14_3200

Binder | fold repression
B1 | 4.47
B2 | 0.974
B3 | 2.19
B4 | 2.94
B5 | 9.47
B6 | 12.9
B7 | 2.06
B8 | 35.5

Target: T6, ECF16_973

Binder | fold repression
B1 | 6.3
B2 | 1.49
B3 | 1.79
B4 | 2.76
B5 | 3.01
B6 | 4.98
B7 | 1.49
B8 | 4.45

Target: T7, ECF22_1147

Binder | fold repression
B1 | 5.37
B2 | 1.28
B3 | 2.3
B4 | 2.64
B5 | 6.02
B6 | 6.96
B7 | 3.4
B8 | 8

What follows are binders tested against ECF27_1331.

Binder | fold repression
B1 | 2.31
B2 | 1.42
B3 | 2.14
B4 | 3.06
B5 | 4.82
B6 | 11.5
B7 | 3.09
B8 | 8.27

Target: T8, ECF27_4265

Binder | fold repression
B1 | 3.11
B2 | 0.852
B3 | 1.61
B4 | 2.05
B5 | 2.89
B6 | 4.51
B7 | 1.92
B8 | 2.31

Target: T9, ECF33_375

Binder | fold repression
B1 | 3.16
B2 | 0.909
B3 | 1.51
B4 | 1.99
B5 | 2.28
B6 | 4.38
B7 | 1.13
B8 | 3.42

Target: T10, ECF34_1384

Binder | fold repression
B1 | 2.28
B2 | 0.959
B3 | 1.65
B4 | 2.37
B5 | 2.2
B6 | 5.15
B7 | 1.64
B8 | 2.76

Target: T11, ECF35_3582

Binder | fold repression
B1 | 3.24
B2 | 1.05
B3 | 1.37
B4 | 1.71
B5 | 1.1
B6 | 2.42
B7 | 1.49
B8 | 4.28

Target: T12, ECF37_2513

Binder | fold repression
B1 | 2.72
B2 | 1.07
B3 | 1.89
B4 | 1.66
B5 | 5.1
B6 | 4.17
B7 | 1.38
B8 | 3.89

Target: T13, ECF38_1322

Binder | fold repression
B1 | 3.12
B2 | 1.07
B3 | 1.68
B4 | 2.08
B5 | 2.66
B6 | 4.8
B7 | 1.27
B8 | 2.76
